Biological target: receptor for UNQ733 on the surface of lymphoma cell lines and B cells (unidentified) (human)
Test: flow cytometry on purified human peripheral blood B cells, 48 h with anti-CD40 and rIL-4

Substance: His8-tagged UNQ733 polypeptide (ligand)
- fold increase of binding on B cells stimulated with anti-CD40 and IL-4 against resting B cells: 2 to 5 fold

— patent US20090054631A1
